Results reported in article PMC9433092, “Closely related type II-C Cas9 orthologs recognize diverse PAMs”.

T1: Nsp2-SmuCas9 (synthetic)
T1 chain: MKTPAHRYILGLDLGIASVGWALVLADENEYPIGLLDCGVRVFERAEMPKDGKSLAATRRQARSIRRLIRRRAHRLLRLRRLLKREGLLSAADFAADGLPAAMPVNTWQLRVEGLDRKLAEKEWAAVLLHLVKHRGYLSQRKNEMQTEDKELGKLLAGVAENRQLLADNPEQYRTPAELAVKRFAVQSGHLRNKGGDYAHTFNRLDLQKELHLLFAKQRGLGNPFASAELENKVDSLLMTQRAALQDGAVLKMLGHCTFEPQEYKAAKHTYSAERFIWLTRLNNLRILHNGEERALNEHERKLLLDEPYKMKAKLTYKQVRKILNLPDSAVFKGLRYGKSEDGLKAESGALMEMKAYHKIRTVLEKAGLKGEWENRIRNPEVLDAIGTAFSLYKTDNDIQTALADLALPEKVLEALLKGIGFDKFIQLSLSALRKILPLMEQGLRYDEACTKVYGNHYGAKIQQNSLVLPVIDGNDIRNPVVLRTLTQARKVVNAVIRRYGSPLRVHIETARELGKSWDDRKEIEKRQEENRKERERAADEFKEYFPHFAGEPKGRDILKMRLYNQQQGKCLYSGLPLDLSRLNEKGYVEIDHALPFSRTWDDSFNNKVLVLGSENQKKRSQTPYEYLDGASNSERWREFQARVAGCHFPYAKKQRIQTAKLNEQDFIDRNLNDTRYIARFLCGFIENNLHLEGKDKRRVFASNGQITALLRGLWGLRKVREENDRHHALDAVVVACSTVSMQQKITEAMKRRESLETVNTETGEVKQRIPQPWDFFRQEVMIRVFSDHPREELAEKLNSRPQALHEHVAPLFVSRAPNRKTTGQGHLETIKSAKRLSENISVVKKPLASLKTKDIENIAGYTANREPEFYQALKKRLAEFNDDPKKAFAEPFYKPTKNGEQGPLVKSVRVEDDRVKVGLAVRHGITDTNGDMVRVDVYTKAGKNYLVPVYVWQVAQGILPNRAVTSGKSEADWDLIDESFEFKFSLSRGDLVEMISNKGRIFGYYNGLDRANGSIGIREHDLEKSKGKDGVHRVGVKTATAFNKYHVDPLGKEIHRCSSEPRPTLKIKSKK

T2: Nme2-SmuCas9 (synthetic)
T2 chain: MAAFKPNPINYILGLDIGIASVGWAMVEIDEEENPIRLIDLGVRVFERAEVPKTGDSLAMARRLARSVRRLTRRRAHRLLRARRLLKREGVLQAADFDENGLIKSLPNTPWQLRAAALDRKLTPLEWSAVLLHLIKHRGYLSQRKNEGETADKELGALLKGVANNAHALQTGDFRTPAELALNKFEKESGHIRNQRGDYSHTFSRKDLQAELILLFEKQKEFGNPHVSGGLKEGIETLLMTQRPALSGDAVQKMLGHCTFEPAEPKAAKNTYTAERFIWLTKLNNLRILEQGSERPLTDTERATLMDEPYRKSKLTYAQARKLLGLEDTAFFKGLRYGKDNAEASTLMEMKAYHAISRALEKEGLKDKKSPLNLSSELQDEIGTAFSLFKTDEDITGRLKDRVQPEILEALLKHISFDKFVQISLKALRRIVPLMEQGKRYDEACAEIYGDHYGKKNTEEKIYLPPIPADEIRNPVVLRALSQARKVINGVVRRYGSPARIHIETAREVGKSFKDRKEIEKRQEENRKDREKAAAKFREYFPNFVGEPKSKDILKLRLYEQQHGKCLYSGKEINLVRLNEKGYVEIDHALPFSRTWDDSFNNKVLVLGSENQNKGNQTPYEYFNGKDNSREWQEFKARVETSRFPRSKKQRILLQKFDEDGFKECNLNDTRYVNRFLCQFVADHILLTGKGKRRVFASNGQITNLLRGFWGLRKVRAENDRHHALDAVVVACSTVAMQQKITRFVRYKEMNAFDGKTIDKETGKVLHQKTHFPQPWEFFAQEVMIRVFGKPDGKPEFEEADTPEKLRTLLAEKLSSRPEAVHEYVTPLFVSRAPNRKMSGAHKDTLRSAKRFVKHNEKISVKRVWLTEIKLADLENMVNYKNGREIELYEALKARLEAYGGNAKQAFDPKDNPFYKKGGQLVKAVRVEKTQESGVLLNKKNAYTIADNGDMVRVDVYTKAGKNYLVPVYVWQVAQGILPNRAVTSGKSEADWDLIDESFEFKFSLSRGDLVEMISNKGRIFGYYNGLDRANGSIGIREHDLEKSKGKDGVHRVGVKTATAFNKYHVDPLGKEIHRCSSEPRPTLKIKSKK

T3: NarCas9 (Neisseria arctica, UniProt A0A0J0YQ19)
T3 sequence: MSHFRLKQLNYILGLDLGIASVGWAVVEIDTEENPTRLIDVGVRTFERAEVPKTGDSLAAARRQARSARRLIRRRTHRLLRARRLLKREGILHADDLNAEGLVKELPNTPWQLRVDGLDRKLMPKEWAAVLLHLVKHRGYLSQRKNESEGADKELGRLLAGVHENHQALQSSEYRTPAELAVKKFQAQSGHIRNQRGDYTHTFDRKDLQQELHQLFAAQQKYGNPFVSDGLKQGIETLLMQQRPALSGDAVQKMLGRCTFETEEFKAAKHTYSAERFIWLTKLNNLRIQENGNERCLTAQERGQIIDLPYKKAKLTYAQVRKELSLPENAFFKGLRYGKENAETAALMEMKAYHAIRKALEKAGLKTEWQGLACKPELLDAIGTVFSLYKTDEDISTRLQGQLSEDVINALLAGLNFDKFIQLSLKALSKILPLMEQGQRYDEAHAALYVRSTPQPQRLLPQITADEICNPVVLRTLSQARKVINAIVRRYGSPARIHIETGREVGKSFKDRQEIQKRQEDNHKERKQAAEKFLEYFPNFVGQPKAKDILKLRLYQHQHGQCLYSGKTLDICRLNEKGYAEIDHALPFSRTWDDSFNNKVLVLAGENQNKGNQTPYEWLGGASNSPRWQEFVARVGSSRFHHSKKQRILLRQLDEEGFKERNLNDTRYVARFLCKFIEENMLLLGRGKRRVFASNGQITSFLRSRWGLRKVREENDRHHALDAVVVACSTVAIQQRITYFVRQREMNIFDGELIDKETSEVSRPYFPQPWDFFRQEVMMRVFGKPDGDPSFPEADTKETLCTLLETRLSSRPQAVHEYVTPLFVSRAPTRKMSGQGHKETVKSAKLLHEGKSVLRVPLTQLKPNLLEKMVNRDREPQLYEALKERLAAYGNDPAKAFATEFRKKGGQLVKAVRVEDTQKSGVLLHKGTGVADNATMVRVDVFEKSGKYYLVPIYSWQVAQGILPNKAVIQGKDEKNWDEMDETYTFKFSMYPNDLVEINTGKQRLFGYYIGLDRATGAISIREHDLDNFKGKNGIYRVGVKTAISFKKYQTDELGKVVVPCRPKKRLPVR


Key:
Assay in all cases: HEK293T cells
Conditions in all cases: tags: NLS and HA tags, kept
[1] = target: T1, Nsp2-SmuCas9
[2] = target: T2, Nme2-SmuCas9
[3] = target: T3, NarCas9

Binder | indel frequency [1] [% indels] | indel frequency [2] [% indels] | indel frequency [3] [% indels]
AAVS1 TS6 (mixed) RNA: GUGAACUGGAGUGUGACAGCCUGGUUGUAGCUCCCUUUCUCAUUUCGGAAACGAAAUGAGAACCGUUGCUACAAUAAGGCCGUCUGAAAAGAUGUGCCGCAACGCUCUGCCCCUUAAAGCUUCUGCUUUAAGGGGCAUCGUUUAUUUUUUU DNA 1: TGAACTGGAGTGTGACAGCCTGGGGCCCAG DNA 2: CTGGGCCCCAGGCTGTCACACTCCAGTTCA | 6.16 |  | 
EMX1 TS13 (mixed) RNA: GGUGGUAGAGGGAGCAGUAUGAGUUGUAGCUCCCUUUCUCAUUUCGGAAACGAAAUGAGAACCGUUGCUACAAUAAGGCCGUCUGAAAAGAUGUGCCGCAACGCUCUGCCCCUUAAAGCUUCUGCUUUAAGGGGCAUCGUUUAUUUUUUU DNA 1: GGTGGTAGAGGGAGCAGTATGAGAGTCTGG DNA 2: CCAGACTCTCATACTGCTCCCTCTACCACC | 35.6 | 12.2 | 18.4
EMX1 TS10 (mixed) RNA: GACUGACUGGAUGUGCACAGCAGGUUGUAGCUCCCUUUCUCAUUUCGGAAACGAAAUGAGAACCGUUGCUACAAUAAGGCCGUCUGAAAAGAUGUGCCGCAACGCUCUGCCCCUUAAAGCUUCUGCUUUAAGGGGCAUCGUUUAUUUUUUU DNA 1: ACTGACTGGATGTGCACAGCAGTGACCG DNA 2: CGGTCACTGCTGTGCACATCCAGTCAGT | 5.48 |  | 
AAVS1 TS1 (mixed) RNA: GCAGCAUAGGGUGGCAAAGCCCAGUUGUAGCUCCCUUUCUCAUUUCGGAAACGAAAUGAGAACCGUUGCUACAAUAAGGCCGUCUGAAAAGAUGUGCCGCAACGCUCUGCCCCUUAAAGCUUCUGCUUUAAGGGGCAUCGUUUAUUUUUUU DNA 1: CAGCATAGGGTGGCAAAGCCCAGGGCCAGG DNA 2: CCTGGCCCTGGGCTTTGCCACCCTATGCTG | 16.7 |  | 10.9
AAVS1 TS2 (mixed) RNA: GCAGCGCAAAGUGACAAUGGCCAGUUGUAGCUCCCUUUCUCAUUUCGGAAACGAAAUGAGAACCGUUGCUACAAUAAGGCCGUCUGAAAAGAUGUGCCGCAACGCUCUGCCCCUUAAAGCUUCUGCUUUAAGGGGCAUCGUUUAUUUUUUU DNA 1: CAGCGCAAAGTGACAATGGCCAGGGCCAGG DNA 2: CCTGGCCCTGGCCATTGTCACTTTGCGCTG | 12.4 |  | 
EMX1 TS9 (mixed) RNA: GUAAGACGAAUUGUAGAAAGGAGGUUGUAGCUCCCUUUCUCAUUUCGGAAACGAAAUGAGAACCGUUGCUACAAUAAGGCCGUCUGAAAAGAUGUGCCGCAACGCUCUGCCCCUUAAAGCUUCUGCUUUAAGGGGCAUCGUUUAUUUUUUU DNA 1: TAAGACGAATTGTAGAAAGGAGAGATCAC DNA 2: GTGATCTCTCCTTTCTACAATTCGTCTTA | 16 |  | 
GRIN2B TS17 (mixed) RNA: GUGCAGUUAGGGAAUAAGCCCCAGUUGUAGCUCCCUUUCUCAUUUCGGAAACGAAAUGAGAACCGUUGCUACAAUAAGGCCGUCUGAAAAGAUGUGCCGCAACGCUCUGCCCCUUAAAGCUUCUGCUUUAAGGGGCAUCGUUUAUUUUUUU DNA 1: TGCAGTTAGGGAATAAGCCCCAGTGTCAAG DNA 2: CTTGACACTGGGGCTTATTCCCTAACTGCA | 23.2 |  | 7.65
AAVS1 TS5 (mixed) RNA: GGUCUGAGGGUGGAGGGACUGGGUUGUAGCUCCCUUUCUCAUUUCGGAAACGAAAUGAGAACCGUUGCUACAAUAAGGCCGUCUGAAAAGAUGUGCCGCAACGCUCUGCCCCUUAAAGCUUCUGCUUUAAGGGGCAUCGUUUAUUUUUUU DNA 1: GGTCTGAGGGTGGAGGGACTGGGGGCCTGG DNA 2: CCAGGCCCCCAGTCCCTCCACCCTCAGACC | 17.8 | 14.5 | 13.2
AAVS1 TS4 (mixed) RNA: GCUGUCCCCUCCACCCCACAGUGGUUGUAGCUCCCUUUCUCAUUUCGGAAACGAAAUGAGAACCGUUGCUACAAUAAGGCCGUCUGAAAAGAUGUGCCGCAACGCUCUGCCCCUUAAAGCUUCUGCUUUAAGGGGCAUCGUUUAUUUUUUU DNA 1: CTGTCCCCTCCACCCCACAGTGGGGCCACT DNA 2: AGTGGCCCCACTGTGGGGTGGAGGGGACAG | 6.53 |  | 5.75
EMX1 TS14 (mixed) RNA: GCCAAGACGGUGACCAGACUCAAGUUGUAGCUCCCUUUCUCAUUUCGGAAACGAAAUGAGAACCGUUGCUACAAUAAGGCCGUCUGAAAAGAUGUGCCGCAACGCUCUGCCCCUUAAAGCUUCUGCUUUAAGGGGCAUCGUUUAUUUUUUU DNA 1: CCAAGACGGTGACCAGACTCAAGTTACTGA DNA 2: TCAGTAACTTGAGTCTGGTCACCGTCTTGG | 16.5 |  | 
AAVS1 TS3 (mixed) RNA: GUCUGACCUGCAUUCUCUCCCCUGUUGUAGCUCCCUUUCUCAUUUCGGAAACGAAAUGAGAACCGUUGCUACAAUAAGGCCGUCUGAAAAGAUGUGCCGCAACGCUCUGCCCCUUAAAGCUUCUGCUUUAAGGGGCAUCGUUUAUUUUUUU DNA 1: TCTGACCTGCATTCTCTCCCCTGGGCCTGT DNA 2: ACAGGCCCAGGGGAGAGAATGCAGGTCAGA | 17.9 |  | 9.89
